Molecular target: T1, GST-Ubc9 (S. pombe, UniProt P40984 1-157)
T1 sequence (looked up): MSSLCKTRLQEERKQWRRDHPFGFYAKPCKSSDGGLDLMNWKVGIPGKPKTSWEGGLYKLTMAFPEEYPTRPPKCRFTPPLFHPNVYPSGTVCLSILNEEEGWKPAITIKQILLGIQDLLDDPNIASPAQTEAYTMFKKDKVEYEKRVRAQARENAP
Experiment: pull-down

B1: 6His-Rad60 SLD2 (domain or fragment, S. pombe, UniProt Q9USX3 332-406, looked up)
chain: KLITLLLRSSKSEDLRLSIPVDFTVKDLIKRYCTEVKISFHERIRLEFEGEWLDPNDQVQSTELEDEDQVSVVLD
B1: binds.

Reference: paper PMC2711901 (Nature structural & molecular biology, 2009)
